Laboratory results reported in publication PMC10881741, “Structural modifications toward improved lead-203/lead-212 peptide-based image-guided alpha-particle radiopharmaceutical therapies for neuroendocrine tumors” (European Journal of Nuclear Medicine and Molecular Imaging, 2023).
Read-outs that look alike come from different tables or passages of the source.

Columns and labels:
midgut NETs = test system: midgut NETs; set-up: method as in PMID 28076709, PMID 28428192; conditions: patients with midgut NETs ref 5, 6; cited from earlier work
SSTR2 = target: T1, SSTR2 (Rattus norvegicus, UniProt P30680); assay: In vitro competitive binding assay ([^125I]I-TOC displacement in AR42J cells)
T1 construct: host or cells: AR42J rat pancreatic acinar cells
T1 sequence (P30680 whole entry): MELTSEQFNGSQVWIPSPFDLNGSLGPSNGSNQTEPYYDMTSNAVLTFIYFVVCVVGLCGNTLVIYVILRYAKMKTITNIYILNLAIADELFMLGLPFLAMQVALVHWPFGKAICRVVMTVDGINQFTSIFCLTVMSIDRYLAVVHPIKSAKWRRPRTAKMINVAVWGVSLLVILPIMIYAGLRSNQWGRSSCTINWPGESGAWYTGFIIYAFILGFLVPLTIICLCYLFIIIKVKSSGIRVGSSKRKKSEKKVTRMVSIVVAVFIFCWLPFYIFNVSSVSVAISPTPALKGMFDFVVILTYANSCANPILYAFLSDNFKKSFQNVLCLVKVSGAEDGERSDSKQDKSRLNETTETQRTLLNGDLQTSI
Protocol: SSTR2-positive AR42J rat pancreatic acinar cells were purchased from the American Type Culture Collection (ATCC; CRL-1492) and were cultured in RPMI 1640 medium, supplemented with 10% fetal bovine serum (FBS), 2 mM glutamine, and antibiotics (0.1 mg/mL streptomycin and 100 IU penicillin) at 37 °C under a humidified condition (5% CO2). The cells were plated into poly-D-lysine-coated 24-well plates at a density of 1.0 × 10^5 cells per well. […] Cells were then washed twice with ice-cold PBS and lysed with 0.5 N NaOH. The radioactivities of the harvested samples were measured using an automated gamma counter (PerkinElmer Cobra II; PerkinElmer, Freemont, CA). IC50 was determined using GraphPad Prism V8.0.

[1] = Stability in water and human serum (radio-HPLC); assay type: in vitro ADME; conditions: ^203Pb-labeled, 37 °C, up to 24 h
Source text: New peptides were designed and synthesized using standard fluorenylmethyloxycarbonyl (Fmoc)-based solid phase peptide synthesis. The peptides were developed under two basic strategies: (a) a click cyclization approach to substitute the disulfide bond of TOC with a triazole link, which potentially improves PK and in vivo stability; and (b) Pb-specific structural optimization based on TOC by incorporating the new chelator composition and various sizes of PEG linkers (Fig. 1 and Table 1). […] The radiolabeling and purification process for the preparation of ^203Pb/^212Pb-labeled peptides followed the methods outlined in a previously published study. […] The stability of the most promising RPDC, [^203Pb]Pb-PSC-PEG2-TOC, was evaluated in water and normal human serum up to 24 h of incubation at 37 °C using the radio-HPLC system. Furthermore, PSC-PEG2-TOC was assessed for a radiolabeling yield with clinically relevant ^203Pb activity (1.8–3.6 GBq) to assess changes in performance with increases in molar activity (MBq/nmol; Supplementary Material).
PSC-PEG2-TOC was characterized for stability in water and human serum. […] The penetrate by centrifugation (serum samples) or the samples in water were analyzed by a radio-HPLC system (Agilent 1200 Series connected with an IN/US β-RAM Model 4 radio-detector) to monitor the degree of peptide degradation.

[2] = In vivo biodistribution of ^203Pb-labeled peptides; set-up: species or system mice; conditions: female, athymic nu/nu, mouse, intravenous, 37 kBq, total radioactivity; for tissue uptake at 3 h: 3 h post-administration; for tissue uptake at 24 h: 24 h post-administration; for tissue uptake at 1 h: 1 h post-administration
Protocol: AR42J cells (5.0 × 10^6 cells/animal) were implanted subcutaneously on the left shoulder of female athymic nu/nu mice. […] Extra groups of mice were co-administered 37 kBq of ^203Pb-PSC-PEG2-TOC with DL-lysine (400 mg/kg) to determine the effect of amino acid on renal uptake of the radiopharmaceutical. Mice (n=3 per time point) were euthanized at 1, 3, and 24 h post-administration, and tumors and organs/tissues of interest were excised and weighed. The radioactivities of the samples were measured using the gamma counter.

[3] = large intestine, read-out: Large intestine
[4] = small intestine, read-out: Small intestine

[^177Lu]Lu-DOTATATE
Complete response rate (midgut NETs): 1% | Objective responses (midgut NETs): 18–30%

C[C@@H](O)[C@@H]1NC(=O)[C@H](CCCCN)NC(=O)[C@@H](Cc2c[nH]c3ccccc23)NC(=O)[C@H](Cc2ccc(O)cc2)NC(=O)[C@@H](NC(=O)[C@@H](Cc2ccccc2)NC(=O)CCOCCOCCNC(=O)CN2CCN(CC(=O)O)CCN(CC(N)=O)CCN(CC(=O)O)CC2)CSSC[C@@H](C(=O)N[C@H](CO)[C@@H](C)O)NC1=O [PSC-PEG2-TOC, PSC-PEG2-D-Phe-cyclo[Cys-Tyr-D-Trp-Lys-Thr-Cys]-Thr-OH]
Improvement in affinity vs. DOTATOC (factor) (SSTR2): > 2 | Radiochemical and metabolic stability [1]: robust radiochemical stability

C[C@@H](O)[C@@H]1NC(=O)[C@H](CCCCN)NC(=O)[C@@H](Cc2c[nH]c3ccccc23)NC(=O)[C@H](Cc2ccc(O)cc2)NC(=O)[C@@H](NC(=O)[C@@H](Cc2ccccc2)NC(=O)CN2CCN(CC(=O)O)CCN(CC(=O)O)CCN(CC(=O)O)CC2)CSSC[C@@H](C(=O)N[C@H](CO)[C@@H](C)O)NC1=O [[^203Pb]Pb-DOTATOC, metal not drawn, reference compound]
tissue uptake at 3 h ([2]; blood, read-out: Blood): 0.02 %ID/g | tissue uptake at 24 h ([2]; blood, read-out: Blood): 0.01 %ID/g | tissue uptake at 1 h ([2]; brain, read-out: Brain): 0.03 ± 0.01 %ID/g | tissue uptake at 3 h ([2]; brain, read-out: Brain): 0.01 %ID/g | tissue uptake at 24 h ([2]; brain, read-out: Brain): 0.01 %ID/g | tissue uptake at 3 h ([2]; heart, read-out: Heart): 0.07 ± 0.05 %ID/g | tissue uptake at 24 h ([2]; heart, read-out: Heart): 0.02 ± 0.01 %ID/g | tissue uptake at 1 h ([2]; kidneys, read-out: Kidneys): 12.2 %ID/g | tissue uptake at 3 h ([2]; kidneys, read-out: Kidneys): 14.6 ± 2.34 %ID/g | tissue uptake at 24 h ([2]; kidneys, read-out: Kidneys): 7.6 %ID/g | tissue uptake at 1 h [2, 3]: 0.32 ± 0.12 %ID/g | tissue uptake at 3 h [2, 3]: 1.11 ± 0.74 %ID/g | tissue uptake at 24 h [2, 3]: 0.17 ± 0.04 %ID/g | tissue uptake at 1 h ([2]; liver, read-out: Liver): 0.28 ± 0.05 %ID/g | tissue uptake at 3 h ([2]; liver, read-out: Liver): 0.16 ± 0.02 %ID/g | tissue uptake at 24 h ([2]; liver, read-out: Liver): 0.08 ± 0.01 %ID/g | tissue uptake at 1 h ([2]; lung, read-out: Lung): 0.91 ± 0.41 %ID/g | tissue uptake at 3 h ([2]; lung, read-out: Lung): 0.59 ± 0.23 %ID/g | tissue uptake at 24 h ([2]; lung, read-out: Lung): 0.27 ± 0.04 %ID/g | tissue uptake at 1 h ([2]; muscle, read-out: Muscle): 0.1 ± 0.03 %ID/g | tissue uptake at 3 h ([2]; muscle, read-out: Muscle): 0.04 ± 0.01 %ID/g | tissue uptake at 24 h ([2]; muscle, read-out: Muscle): 0.02 %ID/g | tissue uptake at 1 h [2, 4]: 1.91 ± 0.8 %ID/g | tissue uptake at 3 h [2, 4]: 1.78 ± 2.19 %ID/g | tissue uptake at 24 h [2, 4]: 0.08 ± 0.06 %ID/g | tissue uptake at 1 h ([2]; spleen, read-out: Spleen): 0.27 ± 0.05 %ID/g | tissue uptake at 24 h ([2]; spleen, read-out: Spleen): 0.1 ± 0.01 %ID/g | tissue uptake at 1 h ([2]; tumor, read-out: Tumor): 4.6 ± 0.18 %ID/g | tissue uptake at 3 h ([2]; tumor, read-out: Tumor): 4.47 ± 0.75 %ID/g | tissue uptake at 24 h ([2]; tumor, read-out: Tumor): 2.44 ± 0.19 %ID/g
